Laboratory results reported in publication PMC10932607.
Where two headings read alike, the source gives them in different places.

Key:
SemiSWEET [1] = assay: native MS
SemiSWEET [2] = assay: native MS; remark: listed apart in the source

SemiSWEET (natural protein)
stoichiometry N (SemiSWEET [1]): 2
stoichiometry N (SemiSWEET [2]): 2
